Where a chain is given by its changes, count along the chain named. Names may count otherwise.
B1: Cpl-1 DNP→AAA (enzyme, bacteriophage Cp-1, UniProt P15057 1-339, looked up)
chain: MVKKNDLFVDVSSHNGYDITGILEQMGTTNTIIKISESTTYLNPCLSAQVEQSNPIGFYHFARFGGDVAEAEREAQFFLDNVPMQVKYLVLDYEDDPSGDAQANTNACLRFMQMIADAGYKPIYYSYKPFTHDNVDYQQILAQFPNSLWIAGYGLNDGTANFEYFPSMDGIRWWQYSSNPFDKNIVLLDDEEDDKPKTAGTWKQDSKGWWFRRNNGSFPYNKWEKIGGVWYYFDSKGYCLTSEWLKDNEKWYYLKDNGAMATGWVLVGSEWYYMDDSGAMVTGWVKYKNNWYYMTNERGNMVSNEFIKSGKGWYFMNTNGELAAAASFTKEPDGLITVA
B2: Cpl-1 Y238A (enzyme, bacteriophage Cp-1, UniProt P15057 1-339, looked up)
chain: B1 chain with Y238A, A324D, A325N, A326P
B3: Cpl-1 W210A:F218A (enzyme, bacteriophage Cp-1, UniProt P15057 1-339, looked up)
chain: B1 chain with W210A, F218A, A324D, A325N, A326P
B4: Cpl-1 KEP→AAA (enzyme, bacteriophage Cp-1, UniProt P15057 1-339, looked up)
chain: B1 chain with A324D, A325N, A326P, K330A, E331A, P332A
B5: Cpl-1 F218A (enzyme, bacteriophage Cp-1, UniProt P15057 1-339, looked up)
chain: B1 chain with F218A, A324D, A325N, A326P
B6: Cpl-1 W210A:F218A:Y238A triple mutant (enzyme, bacteriophage Cp-1, UniProt P15057 1-339, looked up)
chain: B1 chain with W210A, F218A, Y238A, A324D, A325N, A326P
B7: Cpl-1 F218A:Y238A (enzyme, bacteriophage Cp-1, UniProt P15057 1-339, looked up)
chain: B1 chain with F218A, Y238A, A324D, A325N, A326P
B8: Cpl-1 W210A (enzyme, bacteriophage Cp-1, UniProt P15057 1-339, looked up)
chain: B1 chain with W210A, A324D, A325N, A326P

Tests used:
[1] = biological target: SP-GH25 (uncultured virus); assay: SEC
[2] = biological target: SP-CHAP (uncultured virus); assay: SEC
[3] = biological target: Cpl-1 Δtail (bacteriophage Cp-1) (UniProt P15057); assay: AUC
[4] = biological target: SP-Amidase (uncultured virus); assay: SEC
Cpl-1 = Cpl-1 (Streptococcus phage Cp1, UniProt P15057); assay: analytical size exclusion chromatography; type: binding
SEC = biological target: the molecule itself; assay: SEC

Row | Molecule | stoichiometry N (SEC) | also measured
1 | SP-GH25 (enzyme) | – | stoichiometry N [1]: 2
2 | SP-CHAP (enzyme) | – | stoichiometry N [2]: 2
3 | Cpl-1 Δtail (from UniProt P15057 1-323) (domain or fragment) | – | stoichiometry N [3]: 2
4 | SP-Amidase (enzyme) | – | stoichiometry N [4]: 2
5 | C[N+](C)(C)CCO [choline] | – | Kd (Cpl-1): ~5 mM
6 | B1 | 2 | –
7 | B2 | 2 | –
8 | B3 | 2 | –
9 | B4 | 2 | –
10 | B5 | 2 | –
11 | B6 | 2 | –
12 | B7 | 2 | –
13 | B8 | 2 | –
